According to publication PMC4755027:

Target: Human TLR4 on HEK-Blue reporter cells (human) (UniProt O00206)
Conditions: scale: absorbance at 640 nm

Chain of UniProt O00206 (O00206 24-839): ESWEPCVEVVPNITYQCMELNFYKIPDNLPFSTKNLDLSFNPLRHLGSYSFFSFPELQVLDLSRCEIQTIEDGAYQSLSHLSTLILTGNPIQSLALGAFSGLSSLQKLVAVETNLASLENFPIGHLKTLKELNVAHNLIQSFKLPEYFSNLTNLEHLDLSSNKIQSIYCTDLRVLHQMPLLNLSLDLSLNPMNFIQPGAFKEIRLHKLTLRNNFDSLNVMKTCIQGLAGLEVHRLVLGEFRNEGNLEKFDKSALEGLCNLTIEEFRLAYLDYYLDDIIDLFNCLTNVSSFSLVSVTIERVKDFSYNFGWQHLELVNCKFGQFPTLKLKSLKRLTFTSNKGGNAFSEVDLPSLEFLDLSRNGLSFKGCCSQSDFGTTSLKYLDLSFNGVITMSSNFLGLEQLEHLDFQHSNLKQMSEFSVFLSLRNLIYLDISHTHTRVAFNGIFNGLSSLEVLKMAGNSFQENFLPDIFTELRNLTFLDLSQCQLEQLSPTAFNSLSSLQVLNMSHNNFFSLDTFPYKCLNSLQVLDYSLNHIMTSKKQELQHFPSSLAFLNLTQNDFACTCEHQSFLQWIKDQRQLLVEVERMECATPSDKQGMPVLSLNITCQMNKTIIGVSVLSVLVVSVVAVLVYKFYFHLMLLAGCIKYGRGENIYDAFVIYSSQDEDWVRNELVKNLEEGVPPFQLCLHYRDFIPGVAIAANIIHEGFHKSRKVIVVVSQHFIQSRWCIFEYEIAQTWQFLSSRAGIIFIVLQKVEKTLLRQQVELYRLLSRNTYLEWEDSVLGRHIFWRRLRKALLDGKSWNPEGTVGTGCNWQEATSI

secreted alkaline phosphatase of HEK-Blue human TLR4 reporter cells, absorbance at 640 nm normalized to media controls, mean of three experiments; significantly superior to equimolar ANXA2t | secreted alkaline phosphatase of HEK-Blue human TLR4 reporter cells, absorbance at 640 nm normalized to media controls, mean of three experiments | Substance
2.7 |  | Human monomeric annexin A2 (from UniProt P07355 1-339) (natural protein)
 | 1.7 | Bovine annexin A2 heterotetramer (from UniProt P04272 1-339; P60902 1-97) (complex)
